Assay results: patent publication US20200407445A1 (ITEOS THERAPEUTICS, published 2020)

T1: human TIGIT expressed on cells (human, UniProt Q495A1 22-244)
T1 sequence (looked up): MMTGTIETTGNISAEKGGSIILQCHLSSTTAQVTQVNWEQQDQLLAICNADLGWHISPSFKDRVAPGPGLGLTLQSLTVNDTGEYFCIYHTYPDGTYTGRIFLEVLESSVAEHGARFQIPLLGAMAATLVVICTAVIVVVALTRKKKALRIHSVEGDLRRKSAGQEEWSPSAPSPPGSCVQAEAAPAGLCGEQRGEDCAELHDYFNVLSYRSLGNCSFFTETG

T2: Human TIGIT-Fc (human, UniProt Q495A1 22-141)
T2 construct: bought (Creative Biomart); also called TIGIT-Fc antigen; TIGIT-Fc fusion antigen; not shown: Fc part
T2 sequence (looked up): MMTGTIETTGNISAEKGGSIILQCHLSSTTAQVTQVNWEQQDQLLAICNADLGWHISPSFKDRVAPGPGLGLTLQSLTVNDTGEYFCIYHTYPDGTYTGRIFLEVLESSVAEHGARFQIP

T3: Human TIGIT-His (human, UniProt Q495A1 22-141, biotinylated in the ForteBio Fab assay)
T3 construct: bought (Creative Biomart); also called Biotinylated Human TIGIT HIS; TIGIT-His monomer; not shown: His tag
T3 sequence (looked up): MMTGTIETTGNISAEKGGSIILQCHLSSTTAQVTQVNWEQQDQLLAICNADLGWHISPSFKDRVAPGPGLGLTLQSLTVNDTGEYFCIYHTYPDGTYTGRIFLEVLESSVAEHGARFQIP

T4: mouse TIGIT expressed on cells (mouse, UniProt P86176 29-249)
T4 construct: whole, on cells; on Jurkat cells engineered to express mouse TIGIT; also called mTIGIT; Jurkat-mTIGIT
T4 sequence (looked up): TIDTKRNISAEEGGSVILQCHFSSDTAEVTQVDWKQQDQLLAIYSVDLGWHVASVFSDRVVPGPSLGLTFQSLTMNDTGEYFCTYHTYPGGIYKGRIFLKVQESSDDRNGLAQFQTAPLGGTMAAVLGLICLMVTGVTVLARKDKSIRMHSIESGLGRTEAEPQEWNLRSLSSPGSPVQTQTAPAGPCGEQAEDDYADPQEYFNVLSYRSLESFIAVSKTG


Assays:
[1] = molecular target: T1, human TIGIT expressed on cells; assay: cell-based or functional assay
[2] = molecular target: T1, human TIGIT expressed on cells; assay: cell-based or functional assay; remark: listed apart in the source
Human TIGIT-Fc = molecular target: T2, Human TIGIT-Fc; assay: ForteBio BLI, IgG KD, avid
Procedure: Briefly, ForteBio affinity measurements were performed by loading IgGs on-line onto AHQ sensors. Sensors were equilibrated off-line in assay buffer for 30 min and then monitored on-line for 60 seconds for baseline establishment. Sensors with loaded IgGs were exposed to 100 nM antigen (human TIGIT-Fc, human TIGIT-His or cyno TIGIT-Fc) for 5 minutes, afterwards they were transferred to assay buffer for 5 min for off-rate measurement. Kinetics were analyzed using the 1:1 binding model.

[3] = molecular target: T1, human TIGIT expressed on cells; assay: flow cytometry on Jurkat-hTIGIT, FIG. 9
Procedure: (§1) Antibodies were incubated with the cells for 20 min at 4° C. in FACS buffer. […] Geometric mean fluorecence intensity was analysed using LSR BD Fortessa. Cell binding was recorded as the median florescence intensity of PE on the transfected line compared to the un-transfected line for each antibody (Table 3).

Human TIGIT-His [4] = molecular target: T3, Human TIGIT-His; assay: Biacore, IgG captured, TIGIT-His in solution
Procedure: (§2) Biosensor analysis was conducted at 25° C. in a HBS-EP buffer system (10 mM HEPES pH 7.3, 150 mM NaCl, 3 mM EDTA, 0.05% Surfactant P20) using a Biacore 8K optical biosensor docked with a CMS sensor chip (GE Healthcare, Marlboro, Mass.). The sample hotel was maintained at 8° C. […] This surface type provided a format for reproducibly capturing fresh analysis antibody after each regeneration step. Flow cell 2 was used to analyze captured antibody (60-90 RU) while flow cell 1 was used as a reference flow cell. […] Each of the antigen sample concentrations were run as a single replicate. Two blank (buffer) injections also were run and used to assess and subtract system artefacts. The association (300 s) and dissociation (600 s) phases for all antigen concentrations were performed at a flow rate of 30 uL/min. The surface was regenerated with three sequential injections (15 s, 15 s and 60 s) of 10 mM glycine, pH 1.5 at a flow rate of 30 uL/min. The data was aligned, double referenced, and fit to a 1:1 binding model using Biacore 8K Evaluation Software, version 1.0.

Human TIGIT-His [5] = molecular target: T3, Human TIGIT-His; assay: Biacore 8K, IgG on CM5 chip, human TIGIT-HIS in solution
Procedure: as §2

Human TIGIT-His [6] = molecular target: T3, Human TIGIT-His; assay: MSD-SET, monovalent (Fab or mAb titrated, not said which)
Procedure: (§3) Briefly, solution equilibrium titrations (SET) were performed in PBS+0.1% IgG-Free BSA (PBSF) with antigen (TIGIT-His monomer) held constant at 10-100 pM and incubated with 3- to 5-fold serial dilutions of Fab or mAbs starting at 10 pM-10 nM. Antibodies (20 nM in PBS) were coated onto standard bind MSD-ECL plates overnight at 4° C. or at room temperature for 30 min. Plates were then blocked by BSA for 30 min with shaking at 700 rpm, followed by three washes with wash buffer (PBSF+0.05% Tween 20). SET samples were applied and incubated on the plates for 150s with shaking at 700 rpm followed by one wash. Antigen captured on a plate was detected with 250 ng/mL sulfotag-labeled streptavidin in PBSF by incubation on the plate for 3 min. The plates were washed three times with wash buffer and then read on the MSD Sector Imager 2400 instrument using 1× Read Buffer T with surfactant. The percent free antigen was plotted as a function of titrated antibody in Prism and fit to a quadratic equation to extract the KD. To improve throughput, liquid handling robots were used throughout MSD-SET experiments, including SET sample preparation.

[7] = molecular target: T1, human TIGIT expressed on cells; assay: flow cytometry, 100 nM Ab, Jurkat-hTIGIT vs untransfected
Procedure: as §1

[8] = molecular target: T4, mouse TIGIT expressed on cells; assay: flow cytometry, 100 nM Ab, Jurkat-mTIGIT vs untransfected
Procedure: as §1

Human TIGIT-His [9] = molecular target: T3, Human TIGIT-His; assay: MSD-SET, monovalent (Fab or mAb titrated, not said which); remark: listed apart in the source
Procedure: as §3

[10] = molecular target: T1, human TIGIT expressed on cells; assay: flow cytometry, competition with CD155-His (5 ug/ml) on Jurkat-hTIGIT
[11] = molecular target: T5, cynomolgus TIGIT on primary CD8+ T cells (Macaca fascicularis (cynomolgus), UniProt A0A7N9I9V4 89-312); assay: flow cytometry, cynomolgus CD69+CD8+ T cells, FIG. 11
T5 construct: whole, on cells
T5 sequence (A0A7N9I9V4 entry or part of it): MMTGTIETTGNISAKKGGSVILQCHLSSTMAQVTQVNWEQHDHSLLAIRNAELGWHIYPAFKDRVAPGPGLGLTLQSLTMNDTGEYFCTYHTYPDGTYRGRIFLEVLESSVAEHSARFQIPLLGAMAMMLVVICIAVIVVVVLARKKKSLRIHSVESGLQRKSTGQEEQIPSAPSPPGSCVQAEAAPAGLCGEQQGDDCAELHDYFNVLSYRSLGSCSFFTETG
Procedure: Isolated PBMCs from Macaca fascicularis were obtained from BioPRIM. Cells were thawed and stimulated using the T cell activation/expansion kit for non-human primate (Miltenyi Biotec) at 1:2 (bead:cell ratio) following the manufacturer's specifications. The next day, cells were collected, counted and distributed at 5×10^4 cells per well. […] Then, cells were washed and incubated with the following antibodies and LVD mix for data illustrated in FIGS. 11A and 11B: anti-CD4-PercP-Cy5.5 (clone A161A1, BioLegend 357414); anti-CD8-BV510 (clone SK1, BD Bioscience 563919), CD69-APC-Cy7 (Clone FN50, BioLegend, 310914) and LVD efluor 520 (eBioscience 65-0867-14). Stained cells were analysed by FACS using BD LSR Fortessa. The EC50 value of binding was calculated using the % of positive TIGIT stained cells gated on LVD-CD69+CD8+ T cells.

[12] = molecular target: T1, human TIGIT expressed on cells; assay: flow cytometry, total human primary CD8+ T cells, % TIGIT stained cells, FIG. 10A

Binder	EC50 for increase in IFNg secretion by human primary CD8 T cells, FIG. 13B [1]	EC50 of Jurkat-hTIGIT cell activation (luciferase), FIG. 12B [1]	increase of IFNg secretion over isotype control, human primary CD8+ T cells + CHO-TCR-CD155 [1]	Induction over Isotype control (fold change), luciferase, Jurkat-hTIGIT + CHO-TCR-CD155, 133 nM [2]	Kd (Human TIGIT-Fc)	EC50 [3]	Kd (Human TIGIT-His [4])	Kd (Human TIGIT-His [5])	Kd (Human TIGIT-His [6])	FON (Fold Over Negative) [7]	FON (Fold Over Negative) [8]	Kd (Human TIGIT-His [9])	IC50 [10]	EC50 [11]	EC50 [12]
anti-TIGIT antibody clone 29520 (IgG) (antibody, V domains shown) VH: QVQLVESGGGLVQPGRSLRLSCAASGFTFRDYAMHWVRQAPGKGLEWVSGITWNSGLIGYADSVKGRFTISRDNAKNSLYLQMNSLRAEDTALYYCAKPVPRLRGLDVWGQGTMVTVSS VL: DIQLTQSPSSVSASVGDRVTITCRASQGISSWLAWYQQKPGKAPKLLIYGASSLQSGVPSRFSGSGSGTDFTLTISSLQPEDFATYYCQQAFYLPWTFGGGTKVEIK	11.1 nM	2.3 nM	5.4 fold	2.52 fold	0.384 nM	0.119 nM	0.716 nM	0.716 nM	0.21 nM	166 fold	535 fold	0.21 nM	0.102 nM	1.73 nM	0.181 nM
anti-TIGIT antibody clone 29527 (IgG) (antibody, V domains shown) VH: QVQLVESGGGVVQPGRSLRLSCAASGFTFSSSYMHWVRQAPGKGLEWVAVIGADGSNKYYADSVEGRFTISRDNSKNTLYLQMNSLRAEDTALYYCAKPVPRRRGLDVWGQGTMVTVSS VL: DIQLTQSPSSVSASVGDRVTITCRASQGISSWLAWYQQKPGKAPKLLIYGASSLQSGVPSRFSGSGSGTDFTLTISSLQPEDFATYYCQQAFYLPWTFGGGTKVEIK	5.1 nM	32 nM	4.5 fold	2.96 fold	0.35 nM	0.05 nM	–	1.2 nM	0.64 nM	142 fold	414 fold	0.64 nM	0.078 nM	0.378 nM	0.253 nM

The next binders have a lower Kd (Human TIGIT-His [5]) than those just listed; values first:

EC50 for increase in IFNg secretion by human primary CD8 T cells, FIG. 13B [1]	EC50 of Jurkat-hTIGIT cell activation (luciferase), FIG. 12B [1]	increase of IFNg secretion over isotype control, human primary CD8+ T cells + CHO-TCR-CD155 [1]	Induction over Isotype control (fold change), luciferase, Jurkat-hTIGIT + CHO-TCR-CD155, 133 nM [2]	Kd (Human TIGIT-Fc)	EC50 [3]	Kd (Human TIGIT-His [4])	Kd (Human TIGIT-His [5])	Kd (Human TIGIT-His [6])	FON (Fold Over Negative) [7]	FON (Fold Over Negative) [8]	Kd (Human TIGIT-His [9])	IC50 [10]	EC50 [11]	EC50 [12]	Binder
6.1 nM	4.4 nM	5.8 fold	3.42 fold	0.376 nM	0.07 nM	0.27 nM	0.27 nM	0.07 nM	164 fold	511 fold	0.07 nM	0.07 nM	–	–	anti-TIGIT antibody clone 29494 (IgG) (antibody, V domains shown) VH: QVQLQESGPGLVKPSETLSLTCTVSGGSISSGSYYLAWIRQPPGKGLEWIGSIFRSGSTYYNPSLESRVTISVDTSKNQFSLKLSSVTAADTAVYYCAIEGANFKDFGYVAFDIWGQGTMVTVSS VL: EIVMTQSPATLSVSPGERATLSCRASQSVSSNLAWYQQKPGQAPRLLIYGASTRATGIPARFSGSGSGTEFTLTISSLQSEDFAVYYCQQSPPWPRTFGGGTKVEIK
–	–	–	–	–	–	0.192 nM	0.192 nM	–	–	–	–	–	–	–	anti-TIGIT antibody clone 31288 (IgG) (antibody, V domains shown, human IgG) VH: QLQLQESGPGLVKPSETLSLTCTVSGGSISSGSYYLAWIRQPPGKGLEWIGSIFRSGSTYYNPSLESRVTISVDTSKNQFSLKLSSVTAADTAVYYCAIEGANFKDFGYVAFDIWGQGTTVTVSS VL: EIVMTQSPATLSVSPGERATLSCRASQSVSSNLAWYQQKPGQAPRLLIYGASTRATGIPARFSGSGSGTEFTLTISSLQSEDFAVYYCQQSPPWPRTFGGGTKVEIK
